The term stoichiometry N denotes the number of molecules, sites or subunits per partner or assembly.

For the assay, the target named is phosphorylated receiver domain of LytR (LytR^N-P) (Staphylococcus aureus strain Mu50) (UniProt P60609). Kind of assay: native gel or EMSA; LytR^N and LytR^N-P (phosphorylated by acetyl phosphate) at 10, 20 and 40 µM on native-PAGE (10% in the methods, 15% in the legend), buffer kept at 4°C, Coomassie stain.

As to “phosphorylated receiver domain of LytR (LytR^N-P) (from UniProt P60609 1-134) (domain or fragment)”, the stoichiometry N worked out at 2.

Values taken from PMC4830213, “Signaling mechanism by the Staphylococcus aureus two-component system LytSR: role of acetyl phosphate in bypassing the cell membrane electrical potential sensor LytS” (F1000Research, 2016).
